How the values were obtained:
[1] = molecular target: AvaII restriction endonuclease (Anabaena variabilis); experiment: crystal structure; three crystal forms: AvaII alone, with partially cleaved dsDNA, and with RNA/DNA heteroduplex; protein in 50 mM Tris-HCl pH 7.4, 0.2 M NaCl, 5 mM CaCl2, 1 mM DTT, 5% glycerol; sitting drops at 18°C
[2] = molecular target: AvaII restriction endonuclease (wild type) (UniProt Q8YYB7); experiment: EMSA; settings: EMSA: 20 mM Tris-acetate pH 7.9, 50 mM K-acetate, 10 mM CaCl2 (replacing Mg-acetate), 1 mg/ml BSA, 37 C 30 min; 10 pmol duplex; 8% native PAGE in TBE or TB + …

Row | stoichiometry N [1] | Substance | binding signal (fold weaker than dsDNA) [2]
1 | 2 | AvaII restriction endonuclease (enzyme) | 
2 |  | 41-nt RNA/DNA heteroduplex, GGACC in RNA or DNA strand | 100

— article PMC7337904
